# Experimental data taken from the supplement of paper PMC5998384.
# Key:
# HeLa Kyoto [1] = assay: thermal stability score vs G1/S (z-score of summed log2 fold changes over temperatures); higher = more thermally stable than in G1/S
# HeLa Kyoto [2] = assay: melting temperature (median over replicates), in situ; higher = more thermally stable
# [3] = cell cycle stage: early G1 (4.5 h after nocodazole release)
# 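For melting temperature (median over replicates), in situ in this document: HeLa Kyoto cells synchronized by double thymidine or nocodazole block, proteins quantified by TMT10plex mass spectrometry, three independent biological replicates.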
# 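For thermal stability score vs G1/S (z-score of summed log2 fold changes over temperatures) in this document: synchronized HeLa Kyoto cells, proteins quantified by TMT10plex mass spectrometry, three biological replicates, mitosis taken 0.5 h after nocodazole release, G1/S directly after double thymidine block.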
Substance,thermal stability score (HeLa Kyoto [1]; [3]),thermal stability score (HeLa Kyoto [1]; cell cycle stage: mitosis),melting temperature (HeLa Kyoto [2]; cell cycle stage: mitosis) [°C],melting temperature (HeLa Kyoto [2]; cell cycle stage: G1/S) [°C]
HRNR,5.84,1.12,–,–
KIAA0100,1.31,1.36,–,–
MLAGAGRPGLPQGRHLCWLLCAFTLKLCQAEAPVQEEKLSASTSNLPCWLVEEFVVAEECSPCSNFRAKTTPECGPTGYVEKITCSSSKRNEFKSCRSALMEQRLFWKFEGAVVCVALIFACLVIIRQRQLDRKALEKVRKQIESI [JTB],–,–,53.4,–
MLQQDSNDDTEDVSLFDAEEETTNRPRKAKIRHPVASFFHLFFRVSAIIVYLLCGLLSSSFITCMVTIILLLSCDFWAVKNVTGRLMVGLRWWNHIDEDGKSHWVFESRKESSQENKTVSEAESRIFWLGLIACPVLWVIFAFSALFSFRVKWLAVVIMGVVLQGANLYGYIRCKVRSRKHLTSMATSYFGKQFLRQNTGDDQTS [TVP23B],–,–,56,–
MLRRVTVAAVCATRRKLCEAGRELAALWGIETRGRCEDSAAARPFPILAMPGRNKAKSTCSCPDLQPNGQDLGENSRVARLGADESEEEGRRGSLSNAGDPEIVKSPSDPKQYRYIKLQNGLQALLISDLSNMEGKTGNTTDDEEEEEVEEEEEDDDEDSGAEIEDDDEEGFDDEDEFDDEHDDDLDTEDNELEELEERAEARKKTTEKQSAAALCVGVGSFADPDDLPGLAHFLEHMVFMGSLKYPDENGFDAFLKKHGGSDNASTDCERTVFQFDVQRKYFKEALDRWAQFFIHPLMIRDAIDREVEAVDSEYQLARPSDANRKEMLFGSLARPGHPMGKFFWGNAETLKHEPRKNNIDTHARLREFWMRYYSSHYMTLVVQSKETLDTLEKWVTEIFSQIPNNGLPRPNFGHLTDPFDTPAFNKLYRVVPIRKIHALTITWALPPQQQHYRVKPLHYISWLVGHEGKGSILSFLRKKCWALALFGGNGETGFEQNSTYSVFSISITLTDEGYEHFYEVAYTVFQYLKMLQKLGPEKRIFEEIRKIEDNEFHYQEQTDPVEYVENMCENMQLYPLQDILTGDQLLFEYKPEVIGEALNQLVPQKANLVLLSGANEGKCDLKEKWFGTQYSIEDIENSWAELWNSNFELNPDLHLPAENKYIATDFTLKAFDCPETEYPVKIVNTPQGCLWYKKDNKFKIPKAYIRFHLISPLIQKSAANVVLFDIFVNILTHNLAEPAYEADVAQLEYKLVAGEHGLIIRVKGFNHKLPLLFQLIIDYLAEFNSTPAVFTMITEQLKKTYFNILIKPETLAKDVRLLILEYARWSMIDKYQALMDGLSLESLLSFVKEFKSQLFVEGLVQGNVTSTESMDFLKYVVDKLNFKPLEQEMPVQFQVVELPSGHHLCKVKALNKGDANSEVTVYYQSGTRSLREYTLMELLVMHMEEPCFDFLRTKQTLGYHVYPTCRNTSGILGFSVTVGTQATKYNSEVVDKKIEEFLSSFEEKIENLTEEAFNTQVTALIKLKECEDTHLGEEVDRNWNEVVTQQYLFDRLAHEIEALKSFSKSDLVNWFKAHRGPGSKMLSVHVVGYGKYELEEDGTPSSEDSNSSCEVMQLTYLPTSPLLADCIIPITDIRAFTTTLNLLPYHKIVK [NRDC],–,–,50.9,50.5
MLVTAYLAFVGLLASCLGLELSRCRAKPPGRACSNPSFLRFQLDFYQVYFLALAADWLQAPYLYKLYQHYYFLEGQIAILYVCGLASTVLFGLVASSLVDWLGRKNSCVLFSLTYSLCCLTKLSQDYFVLLVGRALGGLSTALLFSAFEAWYIHEHVERHDFPAEWIPATFARAAFWNHVLAVVAGVAAEAVASWIGLGPVAPFVAAIPLLALAGALALRNWGENYDRQRAFSRTCAGGLRCLLSDRRVLLLGTIQALFESVIFIFVFLWTPVLDPHGAPLGIIFSSFMAASLLGSSLYRIATSKRYHLQPMHLLSLAVLIVVFSLFMLTFSTSPGQESPVESFIAFLLIELACGLYFPSMSFLRRKVIPETEQAGVLNWFRVPLHSLACLGLLVLHDSDRKTGTRNMFSICSAVMVMALLAVVGLFTVVRHDAELRVPSPTEEPYAPEL [MFSD5],–,–,54.9,–
MNCEREQLRGNQEAAAAPDTMAQPYASAQFAPPQNGIPAEYTAPHPHPAPEYTGQTTVPEHTLNLYPPAQTHSEQSPADTSAQTVSGTATQTDDAAPTDGQPQTQPSENTENKSQPKRLHVSNIPFRFRDPDLRQMFGQFGKILDVEIIFNERGSKGFGFVTFENSADADRAREKLHGTVVEGRKIEVNNATARVMTNKKTVNPYTNGWKLNPVVGAVYSPEFYAGTVLLCQANQEGSSMYSAPSSLVYTSAMPGFPYPAATAAAAYRGAHLRGRGRTVYNTFRAAAPPPPIPAYGGVVYQDGFYGADIYGGYAAYRYAQPTPATAAAYSDSYGRVYAADPYHHALAPAPTYGVGAMNAFAPLTDAKTRSHADDVGLVLSSLQASIYRGGYNRFAPY [RBFOX1],–,–,–,49.8
MNHLPEDMENALTGSQSSHASLRNIHSINPTQLMARIESYEGREKKGISDVRRTFCLFVTFDLLFVTLLWIIELNVNGGIENTLEKEVMQYDYYSSYFDIFLLAVFRFKVLILAYAVCRLRHWWAIALTTAVTSAFLLAKVILSKLFSQGAFGYVLPIISFILAWIETWFLDFKVLPQEAEEENRLLIVQDASERAALIPGGLSDGQFYSPPESEAGSEEAEEKQDSEKPLLEL [STARD3NL],–,–,–,55.4
MPGPSPGLRRALLGLWAALGLGLFGLSAVSQEPFWADLQPRVAFVERGGSLWLNCSTNCPRPERGGLETSLRRNGTQRGLRWLARQLVDIREPETQPVCFFRCARRTLQARGLIRTFQRPDRVELMPLPPWQPVGENFTLSCRVPGAGPRASLTLTLLRGAQELIRRSFAGEPPRARGAVLTATVLARREDHGANFSCRAELDLRPHGLGLFENSSAPRELRTFSLSPDAPRLAAPRLLEVGSERPVSCTLDGLFPASEARVYLALGDQNLSPDVTLEGDAFVATATATASAEQEGARQLVCNVTLGGENRETRENVTIYSFPAPLLTLSEPSVSEGQMVTVTCAAGAQALVTLEGVPAAVPGQPAQLQLNATENDDRRSFFCDATLDVDGETLIKNRSAELRVLYAPRLDDSDCPRSWTWPEGPEQTLRCEARGNPEPSVHCARSDGGAVLALGLLGPVTRALSGTYRCKAANDQGEAVKDVTLTVEYAPALDSVGCPERITWLEGTEASLSCVAHGVPPPDVICVRSGELGAVIEGLLRVAREHAGTYRCEATNPRGSAAKNVAVTVEYGPRFEEPSCPSNWTWVEGSGRLFSCEVDGKPQPSVKCVGSGGATEGVLLPLAPPDPSPRAPRIPRVLAPGIYVCNATNRHGSVAKTVVVSAESPPEMDESTCPSHQTWLEGAEASALACAARGRPSPGVRCSREGIPWPEQQRVSREDAGTYHCVATNAHGTDSRTVTVGVEYRPVVAELAASPPGGVRPGGNFTLTCRAEAWPPAQISWRAPPGALNIGLSSNNSTLSVAGAMGSHGGEYECAATNAHGRHARRITVRVAGPWLWVAVGGAAGGAALLAAGAGLAFYVQSTACKKGEYNVQEAESSGEAVCLNGAGGGAGGAAGAEGGPEAAGGAAESPAEGEVFAIQLTSA [ICAM5],–,–,–,54.5
MPSETPQAEVGPTGCPHRSGPHSAKGSLEKGSPEDKEAKEPLWIRPDAPSRCTWQLGRPASESPHHHTAPAKSPKILPDILKKIGDTPMVRINKIGKKFGLKCELLAKCEFFNAGGSVKDRISLRMIEDAERDGTLKPGDTIIEPTSGNTGIGLALAAAVRGYRCIIVMPEKMSSEKVDVLRALGAEIVRTPTNARFDSPESHVGVAWRLKNEIPNSHILDQYRNASNPLAHYDTTADEILQQCDGKLDMLVASVGTGGTITGIARKLKEKCPGCRIIGVDPEGSILAEPEELNQTEQTTYEVEGIGYDFIPTVLDRTVVDKWFKSNDEEAFTFARMLIAQEGLLCGGSAGSTVAVAVKAAQELQEGQRCVVILPDSVRNYMTKFLSDRWMLQKGFLKEEDLTEKKPWWWHLRVQELGLSAPLTVLPTITCGHTIEILREKGFDQAPVVDEAGVILGMVTLGNMLSSLLAGKVQPSDQVGKVIYKQFKQIRLTDTLGRLSHILEMDHFALVVHEQIQYHSTGKSSQRQMVFGVVTAIDLLNFVAAQERDQK [CBS],–,–,55.8,55
MQSREDAPRSRRLASPRGGKRPKKIHKPTVSAFFTGPEELKDTAHSAALLAQLKSFYDARLLCDVTIEVVTPGSGPGTGRLFPCNRNVLAAACPYFKSMFTGGMYESQQASVTMHDVDAESFEVLVDYCYTGRVSLSEANVERLYAASDMLQLEYVREACASFLARRLDLTNCTAILKFADAFGHRKLRSQAQSYIAQNFKQLSHMGSIREETLADLTLAQLLAVLRLDSLDVESEQTVCHVAVQWLEAAPKERGPSAAEVFKCVRWMHFTEEDQDYLEGLLTKPIVKKYCLDVIEGALQMRYGDLLYKSLVPVPNSSSSSSSSNSLVSAAENPPQRLGMCAKEMVIFFGHPRDPFLCCDPYSGDLYKVPSPLTCLAHTRTVTTLAVCISPDHDIYLAAQPRTDLWVYKPAQNSWQQLADRLLCREGMDVAYLNGYIYILGGRDPITGVKLKEVECYNVKRNQWALVAPLPHSFLSFDLMVIRDYLYALNSKRMFCYDPSHNMWLKCVSLKRNDFQEACVFNEEIYCICDIPVMKVYNPVRAEWRQMNNIPLVSETNNYRIIKHGQKLLLITSRTPQWKKNRVTVYEYDIRGDQWINIGTTLGLLQFDSNFFCLSARVYPSCLEPGQSFLTEEEEIPSESSTEWDLGGFSEPDSESGSSSSLSDDDFWVRVAPQ [KBTBD6],–,–,51.1,50.6
MSAARESHPHGVKRSASPDDDLGSSNWEAADLGNEERKQKFLRLMGAGKKEHTGRLVIGDHKSTSHFRTGEEDKKINEELESQYQQSMDSKLSGRYRRHCGLGFSEVEDHDGEGDVAGDDDDDDDDSPDPESPDDSESDSESEKEESAEELQAAEHPDEVEDPKNKKDAKSNYKMMFVKSSGS [C11ORF58],–,–,–,55
MSKAHPPELKKFTDKKFSLKLNGGRHVQGILRGFDPFMNLVIDECVEMATSGQQKNIGMVEIRGNSIIMLEALERV [SNRPGP15],–,–,54,53.6
MSSSSSSPRETYEEDREYESQAKRLKTEEGEIDYSAEEGENRREATPRGGGDGGGGGRSFSQPEAGGSHHKVSVSPVVHVRGLCESVVEADLVEALEKFGTICYVMMMPFKRQALVEFENIDSAKECVTFAADEPVYIAGQQAFFNYSTSKRITRPGNTDDPSGGNKVLLLSIQNPLYPITVDVLYTVCNPVGKVQRIVIFKRNGIQAMVEFESVLCAQKAKAALNGADIYAGCCTLKIEYARPTRLNVIRNDNDSWDYTKPYLGRRDRGKGRQRQAILGEHPSSFRHDGYGSHGPLLPLPSRYRMGSRDTPELVAYPLPQASSSYMHGGNPSGSVVMVSGLHQLKMNCSRVFNLFCLYGNIEKVKFMKTIPGTALVEMGDEYAVERAVTHLNNVKLFGKRLNVCVSKQHSVVPSQIFELEDGTSSYKDFAMSKNNRFTSAGQASKNIIQPPSCVLHYYNVPLCVTEETFTKLCNDHEVLTFIKYKVFDAKPSAKTLSGLLEWECKTDAVEALTALNHYQIRVPNGSNPYTLKLCFSTSSHL [HNRNPLL],–,–,49.7,47.6
MTQSVVVQVGQCGNQIGCCFWDLALREHAAVNQKGIYDEAISSFFRNVDTRVVGDGGSISKGKICSLKARAVLIDMEEGVVNEILQGPLRDVFDTKQLITDISGSGNNWAVGHKVFGSLYQDQILEKFRKSAEHCDCLQCFFIIHSMGGGTGSGLGTFLLKVLEDEFPEVYRFVTSIYPSGEDDVITSPYNSILAMKELNEHADCVLPIDNQSLFDIISKIDLMVNSGKLGTTVKPKSLVTSSSGALKKQHKKPFDAMNNIVANLLLNLTSSARFEGSLNMDLNEISMNLVPFPQLHYLVSSLTPLYTLTDVNIPPRRLDQMFSDAFSKDHQLLRADPKHSLYLACALMVRGNVQISDLRRNIERLKPSLQFVSWNQEGWKTSLCSVPPVGHSHSLLALANNTCVKPTFMELKERFMRLYKKKAHLHHYLQVEGMEESCFTEAVSSLSALIQEYDQLDATKNMPVQDLPRLSIAM [TUBE1],–,–,55.1,–
PLXNA2,–,–,54.4,54.1
